Patent publication US20220119534A1 (DRAGONFLY THERAPEUTICS, published 2022)

Legend:
[1] = biological target: T1, mFc-hNKG2D (recombinant mFc-tagged human NKG2D dimer) (human, UniProt P26718 73-216); experiment: SPR; after 4 wks 40C in CST pH 7.0
T1 construct: extracellular domain; Made in house; not shown: mouse Fc tag
T1 sequence (looked up): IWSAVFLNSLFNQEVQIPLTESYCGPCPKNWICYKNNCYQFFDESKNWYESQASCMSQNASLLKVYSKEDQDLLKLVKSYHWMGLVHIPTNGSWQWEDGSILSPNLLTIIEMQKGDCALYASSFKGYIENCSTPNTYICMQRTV

[2] = biological target: T2, Human CD16a V158 (FcγRIIIa V158) (human, UniProt P08637 17-208, biotinylated); experiment: SPR; after 4 wks 40C in CST pH 7.0
T2 construct: Bought recombinant receptor; also called hCD16aV; hFcγRIIIa V158

[3] = biological target: T3, Human CLEC12A expressed on cells (Ba/F3-hCLEC12A, PL21, HL60) (human, UniProt Q5QGZ9 1-265); experiment: cell-based or functional assay
T3 sequence: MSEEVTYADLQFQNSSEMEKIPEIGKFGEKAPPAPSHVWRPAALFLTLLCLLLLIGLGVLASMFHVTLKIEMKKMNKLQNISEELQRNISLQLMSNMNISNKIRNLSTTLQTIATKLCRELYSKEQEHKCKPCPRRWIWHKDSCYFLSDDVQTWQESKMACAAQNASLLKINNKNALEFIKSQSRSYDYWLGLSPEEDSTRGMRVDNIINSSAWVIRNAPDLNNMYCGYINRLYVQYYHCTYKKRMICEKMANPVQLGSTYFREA

[4] = biological target: T4, Human CLEC12A-His (recombinant, K244 WT) (human, UniProt Q5QGZ9 65-265); experiment: SPR, two-state fit (kd1); control sample
T4 construct: Made in house (Dragonfly Tx); also called hCLEC12A; hCLEC12A-His; not shown: His tag
T4 sequence: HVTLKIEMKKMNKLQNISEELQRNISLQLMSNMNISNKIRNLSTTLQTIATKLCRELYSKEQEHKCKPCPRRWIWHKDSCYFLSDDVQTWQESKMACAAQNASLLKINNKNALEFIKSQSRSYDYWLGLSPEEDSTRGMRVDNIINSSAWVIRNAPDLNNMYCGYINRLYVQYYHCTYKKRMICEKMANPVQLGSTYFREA

[5] = biological target: T3, Human CLEC12A expressed on cells …; experiment: cell-based or functional assay; remark: listed apart in the source
[6] = biological target: T1, mFc-hNKG2D (recombinant mFc-tagged …); experiment: SPR; after pH 5.0, 40C, 2 wks (n = 2)

T2 sequence (P08637 17-208 F176V limits assumed): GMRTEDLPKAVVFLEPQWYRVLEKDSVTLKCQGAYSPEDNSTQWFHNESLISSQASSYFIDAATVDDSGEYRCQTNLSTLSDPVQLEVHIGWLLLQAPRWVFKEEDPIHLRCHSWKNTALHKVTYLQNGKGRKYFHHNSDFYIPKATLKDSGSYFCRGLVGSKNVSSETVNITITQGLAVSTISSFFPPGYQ

- Kd [1]: 791 nM
- koff [1]: 0.126 s⁻¹
- kon [1]: 160000 M⁻¹ s⁻¹
- Kd [2]: 342 nM
- koff [2]: 0.0284 s⁻¹
- kon [2]: 83100 M⁻¹ s⁻¹
- koff [4]: 0.0476 s⁻¹
- Kd [6]: 703 nM
- koff [6]: 0.131 s⁻¹
- kon [6]: 187000 M⁻¹ s⁻¹
B1: AB0089 TriNKET (bispecific antibody, human IgG1, kappa)
chain: QLQLQESGPGLVKPSETLSLTCTVSGFSLTNYGLHWIRQPPGKCLEWIGVIWVGGATDYNPSLKSRVTISVDTSKNQFSLKLSSVQAADTAVYYCAKGDYGDTLDYWGQGTLVTVSSGGGGSGGGGSGGGGSGGGGSDIQMTQSPSSLSASVGDRVTITCHASQNINFWLSWYQQKPGKAPKLLIYEASNLHTGVPSRFSGSGSGTDFTLTISSLQPEDFATYYCQQSHSYPLTFGCGTKLEIKGSDKTHTCPPCPAPELLGGPSVFLFPPKPKDTLMISRTPEVTCVVVDVSHEDPEVKFNWYVDGVEVHNAKTKPREEQYNSTYRVVSVLTVLHQDWLNGKEYKCKVSNKALPAPIEKTISKAKGQPREPRVYTLPPCRDELTKNQVSLTCLVKGFYPSDIAVEWESNGQPENNYKTTPPVLVSDGSFTLYSKLTVDKSRWQQGNVFSCSVMHEALHNHYTQKSLSLSPG
heavy: EVQLVESGGGLVKPGGSLRLSCAASGFTFSSYSMNWVRQAPGKGLEWVSSISSSSSYIYYADSVKGRFTISRDNAKNSLYLQMNSLRAEDTAVYYCARGAPIGAAAGWFDPWGQGTLVTVSSASTKGPSVFPLAPSSKSTSGGTAALGCLVKDYFPEPVTVSWNSGALTSGVHTFPAVLQSSGLYSLSSVVTVPSSSLGTQTYICNVNHKPSNTKVDKKVEPKSCDKTHTCPPCPAPELLGGPSVFLFPPKPKDTLMISRTPEVTCVVVDVSHEDPEVKFNWYVDGVEVHNAKTKPREEQYNSTYRVVSVLTVLHQDWLNGKEYKCKVSNKALPAPIEKTISKAKGQPREPQVCTLPPSRDELTENQVSLTCLVKGFYPSDIAVEWESNGQPENNYKTTPPVLDSDGSFFLYSWLTVDKSRWQQGNVFSCSVMHEALHNHYTQKSLSLSPG
light: DIQMTQSPSSVSASVGDRVTITCRASQGISSWLAWYQQKPGKAPKLLIYAASSLQSGVPSRFSGSGSGTDFTLTISSLQPEDFATYYCQQGVSFPRTFGGGTKVEIKRTVAAPSVFIFPPSDEQLKSGTASVVCLLNNFYPREAKVQWKVDNALQSGNSQESVTEQDSKDSTYSLSSTLTLSKADYEKHKVYACEVTHQGLSSPVTKSFNRGEC
notes: F3' format heterodimer of three chains; human IgG1 Fc with EW-RVT and Y349C/S354C mutations; also called AB0089 Lot AB0089-002; CLEC12A TriNKET AB0089
- EC50, cytotoxicity potency; after pH 8, 40C, 2 wks [3]: 0.23 nM
- EC50, cytotoxicity potency; control sample [3]: 0.11 nM
- EC50, KHYG1-CD16aV cytotoxicity assay; after forced oxidation [5]: 0.16 nM
- EC50, KHYG1-CD16aV cytotoxicity assay; control sample [5]: 0.11 nM
